T1: Bfl-1, Q16548
T1 chain: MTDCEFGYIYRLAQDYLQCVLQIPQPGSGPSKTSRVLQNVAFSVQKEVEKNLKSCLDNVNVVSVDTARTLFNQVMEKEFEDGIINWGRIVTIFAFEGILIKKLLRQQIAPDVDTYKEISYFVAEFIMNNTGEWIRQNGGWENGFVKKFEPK

T2: Mcl-1, Q07820
T2 chain: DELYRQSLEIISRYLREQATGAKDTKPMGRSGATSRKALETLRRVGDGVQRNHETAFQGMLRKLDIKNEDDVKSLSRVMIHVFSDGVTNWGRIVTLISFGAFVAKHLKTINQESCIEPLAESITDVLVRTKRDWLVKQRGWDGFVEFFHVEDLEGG

T3: Bcl-2, P10415
T3 chain: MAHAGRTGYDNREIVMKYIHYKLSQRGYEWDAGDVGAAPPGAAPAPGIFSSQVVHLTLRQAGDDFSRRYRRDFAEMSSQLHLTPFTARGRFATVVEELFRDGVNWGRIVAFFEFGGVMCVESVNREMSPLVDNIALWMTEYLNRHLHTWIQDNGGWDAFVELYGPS

T4: Bcl-w, Q92843
T4 chain: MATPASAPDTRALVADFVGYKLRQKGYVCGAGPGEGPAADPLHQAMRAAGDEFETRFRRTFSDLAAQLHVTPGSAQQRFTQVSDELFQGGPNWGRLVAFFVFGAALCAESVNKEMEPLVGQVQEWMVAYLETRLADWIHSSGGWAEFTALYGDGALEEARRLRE


Experiments:
Bfl-1, Q16548 [1] = molecular target: T1, Bfl-1, Q16548; assay: fluorescence polarisation, direct titration of receptor into 10 nM labelled peptide
Bcl-xL, Q07817 [2] = assay: as above
Bcl-xL, Q07817, sequence (Q07817 1-209): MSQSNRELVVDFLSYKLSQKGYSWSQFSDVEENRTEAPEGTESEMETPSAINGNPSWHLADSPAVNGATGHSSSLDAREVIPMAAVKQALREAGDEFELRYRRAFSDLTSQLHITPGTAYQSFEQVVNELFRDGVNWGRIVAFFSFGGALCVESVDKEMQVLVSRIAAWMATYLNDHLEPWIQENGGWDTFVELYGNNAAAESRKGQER

Mcl-1, Q07820 [3] = molecular target: T2, Mcl-1, Q07820; assay: as above
Bcl-2, P10415 [4] = molecular target: T3, Bcl-2, P10415; assay: as above
Bfl-1, Q16548 [5] = molecular target: T1, Bfl-1, Q16548; assay: peptide SPOT array, c-Myc-tagged receptor at 1 uM or 100 nM, anti-c-Myc-Cy3
Bcl-xL, Q07817 [6] = assay: as above
Mcl-1, Q07820 [7] = molecular target: T2, Mcl-1, Q07820; assay: as above
Bcl-w, Q92843 [8] = molecular target: T4, Bcl-w, Q92843; assay: fluorescence polarisation, direct titration of receptor into 10 nM labelled peptide
Bcl-w, Q92843 [9] = molecular target: T4, Bcl-w, Q92843; assay: peptide SPOT array, c-Myc-tagged receptor at 1 uM or 100 nM, anti-c-Myc-Cy3
Bcl-2, P10415 [10] = assay: as above
Target sequence in this assay (P10415 1-217): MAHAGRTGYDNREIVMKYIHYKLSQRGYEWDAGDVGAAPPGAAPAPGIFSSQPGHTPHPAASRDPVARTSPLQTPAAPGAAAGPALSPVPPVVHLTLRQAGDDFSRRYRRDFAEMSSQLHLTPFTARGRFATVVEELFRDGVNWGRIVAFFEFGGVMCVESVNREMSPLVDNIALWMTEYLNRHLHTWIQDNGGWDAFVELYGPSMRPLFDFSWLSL

Row | Binder | Kd (Bfl-1, Q16548 [1]) | Kd (Bcl-xL, Q07817 [2]) | Kd (Mcl-1, Q07820 [3]) | Kd (Bcl-2, P10415 [4]) | SPOT signal as a fraction of Bim BH3's signal on the same receptor and array (Bfl-1, Q16548 [5]) | SPOT signal as a fraction of Bim BH3's signal on the same receptor and array (Bcl-xL, Q07817 [6]) | SPOT signal as a fraction of Bim BH3's signal on the same receptor and array (Mcl-1, Q07820 [7]) | Kd (Bcl-w, Q92843 [8]) | SPOT signal as a fraction of Bim BH3's signal on the same receptor and array (Bcl-w, Q92843 [9]) | SPOT signal as a fraction of Bim BH3's signal on the same receptor and array (Bcl-2, P10415 [10])
1 | LCQLSCVSKLMRDVCGSLLQSRGMVI [FBXO30] | > 10 µM | > 10 µM | > 10 µM | 2.56 µM | 0.31 | 0.62 | 0.28 | 3.28 µM |  | 
2 | ADAIRPRCVELRHLCDDFINGNKKKW [MCF2L2] | > 3.37 µM | 0.292 µM | > 4 µM | 0.06 µM | 0.29 | 1.38 | 0.22 | 1.12 µM |  | 
3 | TVATRRLSGFLRTLADRLEGTKELLS [MINA] | 1.13 µM | 1.01 µM | > 10 µM | 0.266 µM | 0.32 | 0.91 | 0.36 | 1.23 µM |  | 
4 | VDSIRPKCQELRHLCDQFSAEIARRR [MCF2L] | > 4.1 µM | 0.004 µM | > 4 µM | 0.006 µM | 0.21 | 1.26 | 0.24 | 0.007 µM |  | 
5 | AIILCNVCGNLCTDCDRFLHLHRRTK [MYCBP2] | > 3.37 µM | > 10 µM | > 10 µM | 1.18 µM | 0.54 | 0.8 | 0.29 | 4.07 µM |  | 
6 | SKFVILSAHKLVFIGDTLSRQAKAAD [BCAR1] | 4.69 µM | 2.54 µM | 0.912 µM | 2.99 µM |  | 0.1 | 0.06 | 3.61 µM |  | 
7 | FSKREKLVEILRNIGDERTMVFVETK [DDX4] | > 3.37 µM | > 4 µM | 0.142 µM | > 3.04 µM | 0.1 | 0.14 | 0.35 | > 4.35 µM |  | 
8 | PAKKMTLSEIYRWICDNFPYYKNAGI [FOXJ2] | > 3.37 µM | 0.103 µM | > 10 µM | 0.13 µM | 0.54 | 2.03 | 0.47 | 0.085 µM |  | 

Next, values leading:

Row | Kd (Bfl-1, Q16548 [1]) | Kd (Bcl-xL, Q07817 [2]) | Kd (Mcl-1, Q07820 [3]) | Kd (Bcl-2, P10415 [4]) | SPOT signal as a fraction of Bim BH3's signal on the same receptor and array (Bfl-1, Q16548 [5]) | SPOT signal as a fraction of Bim BH3's signal on the same receptor and array (Bcl-xL, Q07817 [6]) | SPOT signal as a fraction of Bim BH3's signal on the same receptor and array (Mcl-1, Q07820 [7]) | Kd (Bcl-w, Q92843 [8]) | SPOT signal as a fraction of Bim BH3's signal on the same receptor and array (Bcl-w, Q92843 [9]) | SPOT signal as a fraction of Bim BH3's signal on the same receptor and array (Bcl-2, P10415 [10]) | Binder
9 | 0.182 µM | 1.46 µM | 0.022 µM | 0.237 µM | 0.38 | 1.21 | 0.45 |  |  |  | ACGDSVLARMLRELGDSLRRPQLRLW [SLC19A1]
10 | > 2.28 µM | 0.039 µM | > 10 µM | 0.098 µM | 0.75 | 1.91 | 1.67 | 0.098 µM |  |  | TRRSMVFARHLREVGDEFRSRHLNST [POFUT2]
11 | 0.001 µM |  | 0.023 µM | 0.0003 µM |  |  |  | 0.013 µM |  |  | DAIIQMIVELLKRVGDQWEEEQSLAS [c6orf222]
12 | 0.099 µM |  | 0.069 µM | 0.049 µM | 0.19 | 0.32 | 0.14 | 0.992 µM | 0.12 | 0.03 | LRGSGAWGLLLRRVGDDVLVHLLARC [TERT]
13 | > 4 µM | 1.38 µM | > 4 µM | 0.342 µM | 0.72 | 2.13 | 1.42 | > 100 µM |  |  | RVCPYYLSRNLKQQADIIFMPYNYLL [RTEL1]
14 | > 4.67 µM | > 100 µM | > 4 µM | 0.034 µM | 1.05 | 1.83 | 1.16 | > 1.8 µM |  |  | FKAWGKFGGAFCRYADEMKEIQERQR [PURB]
15 | 0.278 µM | 0.096 µM | 0.019 µM | 0.028 µM | 1.2 | 1.64 | 1.15 | 0.871 µM |  |  | ISSYMVLAPVFGYLGDRYNRKYLMCG [SPNS1]
16 | > 3.37 µM |  |  | > 3.04 µM | 0.03 |  |  | > 4.35 µM |  |  | KIETTPESRYLAQIGDSVSLTCSTTG [VCAM1]
17 | > 3.37 µM | > 6.9 µM | > 4 µM | > 100 µM | 0.37 | 1.41 | 0.32 | > 4.35 µM |  |  | FVGYNSTGAELRHWSDMLANPRRPIA [SYT1]
18 | > 3.37 µM | > 7 µM | 3.85 µM | > 3.04 µM | 0.13 | 0.12 | 0.27 | > 4.35 µM |  |  | QRKHEGFERDLAALGDKVNSLGETAE [SPTAN1]
19 | > 3.29 µM | > 6.9 µM | > 4 µM | 3.29 µM | 0.43 | 0.85 | 1.08 | 5.38 µM |  |  | LMARPAVALHFQSIADGFKEAVRYVL [SOS2]
20 | 3.27 µM | 0.01 µM | 3.81 µM | 0.016 µM | 0.46 | 1.24 | 1.01 | 0.029 µM |  |  | AELRLFLAQRLRWLCDSCPASRATCV [NBEAL2]
